# Measurements taken from US20230037911A1 (SHANGHAI HENLIUS BIOTECH, published 2023).
# T1: recombinant ECD of mouse FcγRIV (mouse, UniProt A0A0B4J1G0 21-203)
# T1 sequence: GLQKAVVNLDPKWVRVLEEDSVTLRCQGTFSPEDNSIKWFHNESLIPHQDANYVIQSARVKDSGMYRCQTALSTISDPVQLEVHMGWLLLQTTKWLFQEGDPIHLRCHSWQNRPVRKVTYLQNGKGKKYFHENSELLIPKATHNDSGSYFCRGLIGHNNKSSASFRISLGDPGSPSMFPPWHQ
# T2: recombinant ECD of human FcγRIIB (human, UniProt P31994 43-217)
# T2 construct: extracellular domain
# T2 sequence (looked up): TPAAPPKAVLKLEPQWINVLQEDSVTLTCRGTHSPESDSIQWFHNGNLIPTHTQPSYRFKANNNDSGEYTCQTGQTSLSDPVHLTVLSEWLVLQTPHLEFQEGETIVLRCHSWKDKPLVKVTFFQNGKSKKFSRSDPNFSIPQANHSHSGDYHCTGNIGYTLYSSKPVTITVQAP
# T3: recombinant human TIGIT extra cellular domain (ECD) protein (human, UniProt Q495A1 22-138)
# T3 construct: Purchased protein; it begins with the signal peptide; also called h-TIGIT ECD; human TIGIT ECD
# T3 sequence: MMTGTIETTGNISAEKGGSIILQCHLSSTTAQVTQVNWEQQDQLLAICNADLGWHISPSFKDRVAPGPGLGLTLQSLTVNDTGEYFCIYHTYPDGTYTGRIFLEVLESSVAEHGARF
# B1: human TIGIT stably expressed on cells (Jurkat; 293T) (receptor)
# chain: MMTGTIETTGNISAEKGGSIILQCHLSSTTAQVTQVNWEQQDQLLAICNADLGWHISPSFKDRVAPGPGLGLTLQSLTVNDTGEYFCIYHTYPDGTYTGRIFLEVLESSVAEHGARFQIPLLGAMAATLVVICTAVIVVVALTRKKKALRIHSVEGDLRRKSAGQEEWSPSAPSPPGSCVQAEAAPAGLCGEQRGEDCAELHDYFNVLSYRSLGNCSFFTETG
# notes: the expression vector's insert is not described further; also called h-TIGIT; human TIGIT transfected Jurkat cells
# B2: 1G1-chimeric (llama VHH of 1G1 with human IgG1 CH2 and CH3 domains), bivalent (Fc fusion)
# chain: QVQLVESGGGLVQAGDSLRLSCVASGPSFSSYPMGWFRQGPGKERESVAAISSDGRFTYYAASVKGRFTISKDNAKSAAFLQMNSLKPEDTAVYYCAARDSGSGYYSRAQWYDYWGQGTLVTVSS
# notes: also called 1G1 chimeric clone; not shown: human IgG1 CH2 and CH3 domains
# B3: 2A3-LT-Fc VLPLL (Fc mutations L235V, F243L, R292P, Y300L and P396L) (Fc fusion)
# chain: QVQLVESGGGVVQPGRSLRLSCAASGGSFSSYPMGWFRQAPGKERESVAAISSDLRFTYYADSVKGRFTISRDNSKNTLYLQMNSLRAEDTAVYYCAARTSGVGYYSRAQWYDYWGQGTLVTVSSEPKSCDKTHTCPPCPAPELVGGPSVFLLPPKPKDTLMISRTPEVTCVVVDVSHEDPEVKFNWYVDGVEVHNAKTKPPEEQYNSTLRVVSVLTVLHQDWLNGKEYKCKVSNKALPAPIEKTISKAKGQPREPQVYTLPPSREEMTKNQVSLTCLVKGFYPSDIAVEWESNGQPENNYKTTPLVLDSDGSFFLYSKLTVDKSRWQQGNVFSCSVMHEALHNHYTQKSLSLSPGK
# notes: also called VLPLL mutant; VPVLL (as printed once)
# B4: 1G1-1C12 VHH (VHH)
# VHH: QVQLVESGGGVVQPGRSLRLSCAASGPSFSSYPMGWFRQAPGKERESVAAISSDLRFTYYADSVKGRFTISRDNSKNTLYLQMNSLRAEDTAVYYCAARDSGSGYYSRKQWYDYWGQGTLVTVSS
# notes: VHH in bacterial supernatant
# B5: 1C12-chimeric (llama VHH of 1C12 with human IgG1 CH2 and CH3 domains), bivalent (Fc fusion)
# chain: QVQLVESGGGLVQTGDSLRLSCAASSRIFSRYGMGWFRQAPGKEREFVAAISWNGASTTYTDSVKGRFTISRDSAENTTYLQINSLRPEDTAVYYCAADPWGAVKLGTAEYEYWGQGTQVTVSS
# notes: also called 1C12 chimeric parental clone; not shown: human IgG1 CH2 and CH3 domains
# Legend:
# [1] = target: T4, 2B10 bivalent VHH antibody (VHH with human CH2 and CH3) (human, UniProt P01857-1 104-330 = IgG part, limits assumed); assay: flow cytometry, whole cell binding on Jurkat cells stably expressing human TIGIT; Alexa Fluor 488 anti-human IgG Fc secondary
# T4 construct: domain: CH2 and CH3
# T4 sequence (P01857 other isoform, or with tags, fused parts or gaps limits assumed): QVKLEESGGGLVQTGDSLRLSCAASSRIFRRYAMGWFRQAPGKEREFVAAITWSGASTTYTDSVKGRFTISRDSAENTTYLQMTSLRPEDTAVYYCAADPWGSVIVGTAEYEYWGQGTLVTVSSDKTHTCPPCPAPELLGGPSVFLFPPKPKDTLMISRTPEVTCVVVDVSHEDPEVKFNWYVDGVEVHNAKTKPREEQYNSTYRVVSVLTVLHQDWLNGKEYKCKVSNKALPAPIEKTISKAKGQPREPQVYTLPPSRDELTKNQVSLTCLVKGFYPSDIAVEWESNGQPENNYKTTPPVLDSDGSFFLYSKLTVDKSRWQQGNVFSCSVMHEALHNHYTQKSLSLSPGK
# Text: (§1) FIGS. 1A-1C depict whole cell binding of representative VHH bivalent antibodies to human TIGIT determined by flowcytometry assays. […] Y axis represents Mean Fluorescence Intensity of AlexaFlour 488. X axis represents antibody concentrations in nanomolar. […] FIG. 1C is a schematic of the structure of a TIGIT VHH bivalent antibody.
# (§2) Jurkat cells stably expressing human TIGIT and NFAT reporter gene were established. Specifically, Jurkat cells were transfected with human TIGIT expression vector by electroporation, and cells stably expressing human TIGIT were selected by 1 μg/ml puromycin during cell culture. Representative antibody clones were incubated at different concentrations with h-TIGIT stably expressing Jurkat cells (0.2×10⁶/ml) in 100 μl/well in 96-well plate in FACS buffer (PBS with 1.5% FBS) for 30 min. After washing, Alexaflour 488 conjugated anti-human IgG Fc secondary antibody (Alexa Fluor® 488 AffiniPure Goat Anti-Human IgG, Fcγ fragment specific, Jackson labs, 1:500 dilution) was added and incubated for 30 min. After washing, mean fluorescence intensity was measured using CytoFlex (Beckman Coulter) by gating live cell population. Binding affinity was calculated using GraphPad Prism.
# [2] = target: T5, 3G7 bivalent VHH antibody (VHH with human CH2 and CH3) (human, UniProt P01857-1 104-330 = IgG part, limits assumed); assay: as above
# T5 construct: domain: CH2 and CH3
# T5 sequence (P01857 other isoform, or with tags, fused parts or gaps limits assumed): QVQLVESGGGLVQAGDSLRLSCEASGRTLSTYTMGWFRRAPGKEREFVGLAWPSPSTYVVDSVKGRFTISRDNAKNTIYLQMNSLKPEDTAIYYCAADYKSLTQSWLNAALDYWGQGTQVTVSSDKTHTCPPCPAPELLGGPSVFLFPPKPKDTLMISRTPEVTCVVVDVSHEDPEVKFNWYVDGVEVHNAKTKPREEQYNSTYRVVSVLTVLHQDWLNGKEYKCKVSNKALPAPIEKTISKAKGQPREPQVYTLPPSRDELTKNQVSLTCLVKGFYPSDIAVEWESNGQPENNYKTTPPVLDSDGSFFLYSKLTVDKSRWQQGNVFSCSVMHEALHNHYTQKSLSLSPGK
# Text: as §1, §2
# [3] = target: T6, 2B7 bivalent VHH antibody (VHH with human CH2 and CH3) (human, UniProt P01857-1 104-330 = IgG part, limits assumed); assay: as above
# T6 construct: domain: CH2 and CH3; Expressed in ExpiCHO, Protein A purified
# T6 sequence (P01857 other isoform, or with tags, fused parts or gaps limits assumed): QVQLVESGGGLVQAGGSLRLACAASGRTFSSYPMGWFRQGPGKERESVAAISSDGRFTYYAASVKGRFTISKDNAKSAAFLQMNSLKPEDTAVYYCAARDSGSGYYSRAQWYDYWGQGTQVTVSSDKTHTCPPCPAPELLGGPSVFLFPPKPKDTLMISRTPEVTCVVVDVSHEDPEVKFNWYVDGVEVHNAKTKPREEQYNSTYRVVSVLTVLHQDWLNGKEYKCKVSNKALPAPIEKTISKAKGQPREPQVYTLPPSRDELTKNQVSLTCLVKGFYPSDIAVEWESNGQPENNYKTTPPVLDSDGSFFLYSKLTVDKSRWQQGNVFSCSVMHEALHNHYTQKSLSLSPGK
# Text: as §1, §2
# [4] = target: T7, 13H11 bivalent VHH antibody (VHH with human CH2 and CH3) (human, UniProt P01857-1 104-330 = IgG part, limits assumed); assay: as above
# T7 construct: domain: CH2 and CH3
# T7 sequence (P01857 other isoform, or with tags, fused parts or gaps limits assumed): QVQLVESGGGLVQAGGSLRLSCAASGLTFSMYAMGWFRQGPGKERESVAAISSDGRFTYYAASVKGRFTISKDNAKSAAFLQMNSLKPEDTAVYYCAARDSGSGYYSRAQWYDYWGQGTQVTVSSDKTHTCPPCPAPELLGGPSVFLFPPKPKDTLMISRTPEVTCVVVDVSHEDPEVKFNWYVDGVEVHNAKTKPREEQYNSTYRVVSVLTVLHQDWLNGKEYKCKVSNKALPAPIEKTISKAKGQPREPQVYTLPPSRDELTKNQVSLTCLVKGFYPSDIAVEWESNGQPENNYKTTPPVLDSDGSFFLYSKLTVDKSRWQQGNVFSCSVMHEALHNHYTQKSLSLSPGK
# Text: as §1, §2
# [5] = target: T8, 15A5 bivalent VHH antibody (VHH with human CH2 and CH3) (human, UniProt P01857-1 104-330 = IgG part, limits assumed); assay: as above
# T8 construct: domain: CH2 and CH3
# T8 sequence (P01857 other isoform, or with tags, fused parts or gaps limits assumed): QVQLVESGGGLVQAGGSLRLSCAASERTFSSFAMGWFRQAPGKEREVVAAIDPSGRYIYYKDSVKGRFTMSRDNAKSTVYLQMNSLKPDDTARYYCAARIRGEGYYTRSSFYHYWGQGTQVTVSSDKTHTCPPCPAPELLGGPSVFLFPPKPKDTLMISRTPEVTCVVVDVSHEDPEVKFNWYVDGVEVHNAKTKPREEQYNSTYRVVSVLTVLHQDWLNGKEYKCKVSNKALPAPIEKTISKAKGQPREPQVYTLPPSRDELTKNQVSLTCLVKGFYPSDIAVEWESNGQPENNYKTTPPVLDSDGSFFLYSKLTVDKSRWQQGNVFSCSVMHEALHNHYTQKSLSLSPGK
# Text: as §1, §2
# [6] = target: T9, 3G6 bivalent VHH antibody (VHH with human CH2 and CH3) (human, UniProt P01857-1 104-330 = IgG part, limits assumed); assay: as above
# T9 construct: domain: CH2 and CH3
# T9 sequence (P01857 other isoform, or with tags, fused parts or gaps limits assumed): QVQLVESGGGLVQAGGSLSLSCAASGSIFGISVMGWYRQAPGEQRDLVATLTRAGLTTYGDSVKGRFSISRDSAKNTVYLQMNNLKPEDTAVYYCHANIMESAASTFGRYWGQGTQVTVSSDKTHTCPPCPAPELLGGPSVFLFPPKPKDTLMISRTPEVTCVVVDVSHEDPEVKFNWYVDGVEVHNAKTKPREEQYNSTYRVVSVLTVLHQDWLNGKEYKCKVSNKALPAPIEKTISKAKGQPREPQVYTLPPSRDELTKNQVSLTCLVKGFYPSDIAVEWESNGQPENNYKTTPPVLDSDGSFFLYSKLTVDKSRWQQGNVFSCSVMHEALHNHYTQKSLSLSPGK
# Text: as §1, §2
# [7] = target: T10, 1C12-EREF humanized bivalent antibody (human, UniProt P01857-1 104-330 = IgG part, limits assumed); assay: flow cytometry, whole cell binding on h-TIGIT transfected Jurkat cells; anti-human IgG Fc AlexaFluor488 secondary
# T10 construct: domain: CH2 and CH3; Called humanized bivalent antibody; the Fc part is not restated; also called 1C12 (F-EREF)
# Protocol: (§3) The binding affinities of the humanized bivalent antibodies to human TIGIT were determined by whole cell binding to h-TIGIT stably expressed on Jurkat cells. Briefly, antibodies were incubated with h-TIGIT transfected Jurkat cells (0.2×10⁶/well in 100 μl) for 30 min in FACS buffer. The cells were washed once, then incubated with anti-human IgG Fc AlexaFluor488 (1:500).
# [8] = target: T11, 1G1-F-A-ERES humanized bivalent antibody (human, UniProt P01857-1 104-330 = IgG part, limits assumed); assay: as above
# T11 construct: domain: CH2 and CH3; Called humanized bivalent antibody; the Fc part is not restated
# Protocol: as §3
# [9] = target: T12, 1G1-F-G-ERES humanized bivalent antibody (human, UniProt P01857-1 104-330 = IgG part, limits assumed); assay: as above
# T12 construct: domain: CH2 and CH3; Called humanized bivalent antibody; the Fc part is not restated
# Protocol: as §3
# [10] = target: T13, 1C12-GLEW humanized bivalent antibody (human, UniProt P01857-1 104-330 = IgG part, limits assumed); assay: as above
# T13 construct: domain: CH2 and CH3; Called humanized bivalent antibody; the Fc part is not restated; also called 1C12(F-GLEW)
# Protocol: as §3
# [11] = target: T14, 1C12-EREW humanized bivalent antibody (human, UniProt P01857-1 104-330 = IgG part, limits assumed); assay: as above
# T14 construct: domain: CH2 and CH3; Called humanized bivalent antibody; the Fc part is not restated; also called 1C12 (F-EREW)
# Protocol: as §3
# [12] = target: B1; assay: flow cytometry, whole cell binding on Jurkat cells stably expressing human TIGIT; Alexa Fluor 488 anti-human IgG Fc secondary
# Text: as §1, §2
# [13] = target: B1; assay: flow cytometry, whole cell binding on h-TIGIT transfected Jurkat cells; anti-human IgG Fc AlexaFluor488 secondary
# Protocol: as §3
# [14] = target: B1; assay: cell-based or functional assay
# [15] = target: T1, recombinant ECD of mouse FcγRIV; assay: Octet (ForteBio) biolayer interferometry; sensor loaded with recombinant ECD of mouse FcγRIV; antibody at 5 concentrations (not given)
# Text: (§4) Y axis represents association, dissociation & Rmax. X axis represents time in second.
# [16] = target: T15, recombinant ECD of human FcγRIIIA (human, UniProt P08637 17-208); assay: Octet (ForteBio) biolayer interferometry; sensor loaded with recombinant ECD of human FcγRIIIA; antibody at 5 concentrations (not given)
# T15 construct: extracellular domain
# T15 sequence (P08637 17-208): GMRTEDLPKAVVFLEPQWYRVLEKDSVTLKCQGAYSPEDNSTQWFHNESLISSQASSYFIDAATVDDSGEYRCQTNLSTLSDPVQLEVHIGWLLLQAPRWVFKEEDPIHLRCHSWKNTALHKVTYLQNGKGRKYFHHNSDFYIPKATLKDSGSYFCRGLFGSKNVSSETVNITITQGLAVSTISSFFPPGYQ
# Text: as §4
# [17] = target: T2, recombinant ECD of human FcγRIIB; assay: Octet (ForteBio) biolayer interferometry; sensor loaded with recombinant ECD of human FcγRIIB; antibody at 5 concentrations (not given)
# Text: as §4
# [18] = target: T3, recombinant human TIGIT extra cellular …; assay: ELISA, VHH in supernatant
binder,measurement,setting,value
B1,binding result,[1],binds
same,binding result,[2],binds
same,binding result,[3],binds
same,binding result,[4],binds
same,binding result,[5],binds
same,binding result,[6],binds
same,binding result,[7],binds
same,binding result,[8],binds
same,binding result,[9],binds
same,binding result,[10],binds
same,binding result,[11],binds
B2,EC50 (read off the curve),[12],~0.1 nM
same,EC50 (read off the curve),[13],~0.08 nM
same,"EC50 (read off the curve); NFAT luciferase reporter (RLU), h-TIGIT/NFAT Jurkat cells with PVR Raji cells and SEE",[14],~1 nM
B3,binding result,[15],binds
same,binding result,[16],binds
same,binding result,[17],binds
B4,binding result,[18],binds
B5,EC50 (read off the curve),[12],~0.04 nM
same,EC50 (read off the curve),[13],~0.03 nM
same,"EC50 (read off the curve); NFAT luciferase reporter (RLU), h-TIGIT/NFAT Jurkat cells with PVR Raji cells and SEE",[14],~0.8 nM
